In the supplement of paper PMC9233669:
Variants at the floor of the assay were thinned out.

What was measured:
biotinyl-Phe-oxazolone = test: self-aminoacylation, catalytic enhancement (BFO) (fold over background); higher = more active; k-Seq, kA / k0A0; sequences stand for … in GGGAAUGGAUCCACAUCUACGAAUUC…UUCACUGCAGACUUGACGAAGCUG
Summary of the method: (§1)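 Mutagenized RNA pools (0.43 μM; 21-nt variable region) were treated with 2–1250 μM of each biotinyl-aminoacyl-oxazolone. Conditions were 50 μL HEPES/NaCl/KCl/MgCl2/CaCl2 buffer, 5% acetonitrile, pH 6.9–7.0, room temperature, 90 minutes. Catalytic enhancement, the median kA relative to the uncatalyzed rate, was derived from streptavidin capture, qPCR and Illumina sequencing.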

biotinyl-Leu-oxazolone = test: self-aminoacylation, catalytic enhancement (BLO) (fold over background); higher = more active; k-Seq, kA / k0A0; sequences stand for … in GGGAAUGGAUCCACAUCUACGAAUUC…UUCACUGCAGACUUGACGAAGCUG
Summary of the method: as §1

biotinyl-Val-oxazolone = test: self-aminoacylation, catalytic enhancement (BVO) (fold over background); higher = more active; k-Seq, kA / k0A0; sequences stand for … in GGGAAUGGAUCCACAUCUACGAAUUC…UUCACUGCAGACUUGACGAAGCUG
Summary of the method: as §1

biotinyl-Trp-oxazolone = test: self-aminoacylation, catalytic enhancement (BWO) (fold over background); higher = more active; k-Seq, kA / k0A0; sequences stand for … in GGGAAUGGAUCCACAUCUACGAAUUC…UUCACUGCAGACUUGACGAAGCUG
Summary of the method: as §1

biotinyl-Met-oxazolone = test: self-aminoacylation, catalytic enhancement (BMO) (fold over background); higher = more active; k-Seq, kA / k0A0; sequences stand for … in GGGAAUGGAUCCACAUCUACGAAUUC…UUCACUGCAGACUUGACGAAGCUG
Summary of the method: as §1

biotinyl-Ile-oxazolone = test: self-aminoacylation, catalytic enhancement (BIO) (fold over background); higher = more active; k-Seq, kA / k0A0; sequences stand for … in GGGAAUGGAUCCACAUCUACGAAUUC…UUCACUGCAGACUUGACGAAGCUG
Summary of the method: as §1

Sequence | self-aminoacylation (biotinyl-Phe-oxazolone) | self-aminoacylation (biotinyl-Leu-oxazolone) | self-aminoacylation (biotinyl-Val-oxazolone) | self-aminoacylation (biotinyl-Trp-oxazolone) | self-aminoacylation (biotinyl-Met-oxazolone) | self-aminoacylation (biotinyl-Ile-oxazolone)
AUUAACCUGGUCAUCGAGGGA [Fam2.1 aminoacylation ribozyme variant] | 0.771 | 1.28 | 1.3 | 1.99 | 1.76 | 1.53
AUUAACCUGGUCAUCGAGUGG [Fam2.1 aminoacylation ribozyme variant] | 2.19 | 2.11 | 1.2 | 2.03 | 1.63 | 1.25
AUUAACCUGGUCAUCGAGUGU [Fam2.1 aminoacylation ribozyme variant] | 5.48 | 4.39 | 2.61 | 4.67 | 3.72 | 2.33
AUUAACCUGGUCAUCGAGUUA [Fam2.1 aminoacylation ribozyme variant] | 0.827 | 1.06 | 1.02 | 0.836 | 1.34 | 1
AUUAACCUGGUCAUCGUGUGA [Fam2.1 aminoacylation ribozyme variant] | 13.1 | 3.13 | 1.82 | 3.69 | 3.13 | 1.69
AUUAAGCUGGUCAUCGAGUGA [Fam2.1 aminoacylation ribozyme variant] | 4.33 | 3.05 | 2.36 | 3.85 | 3.07 | 2.77
AUUACAAUGGUCAUCGAGUGA [Fam2.1 aminoacylation ribozyme variant] | 16.6 | 6.42 | 3.54 | 7.87 | 6.47 | 3.7
AUUACACCGGUCAUCGAGUGA [Fam2.1 aminoacylation ribozyme variant] | 29.4 | 6.36 | 2.96 | 5.95 | 5.76 | 2.95
AUUACACUGGACAUCGAGUGA [Fam2.1 aminoacylation ribozyme variant] | 14.9 | 6.11 | 2.87 | 6.45 | 5.83 | 3.23
AUUACACUGGUCAGCGAGUGA [Fam2.1 aminoacylation ribozyme variant] | 16.9 | 5.37 | 2.58 | 5.83 | 4.36 | 3.4
AUUACACUGGUCAUCGAGCGA [Fam2.1 aminoacylation ribozyme variant] | 0.889 | 2.29 | 1.96 | 1.8 | 2.15 | 1.64
AUUACACUGGUCAUCGAGUCA [Fam2.1 aminoacylation ribozyme variant] | 0.583 | 0.857 | 0.83 | 0.497 | 0.865 | 0.877
AUUACACUGGUCAUUGAGUGA [Fam2.1 aminoacylation ribozyme variant] | 35 | 6.76 | 3.28 | 7.64 | 6.48 | 3.39
AUUACAGUGGUCAUCGAGUGA [Fam2.1 aminoacylation ribozyme variant] | 1.09 | 1.44 | 1.76 | 1.78 | 1.87 | 1.75
AUUACCAGGGUCAUCGAGUGA [Fam2.1 aminoacylation ribozyme variant] | 17.2 | 5.09 | 3.1 | 5.56 | 4.43 | 3.1
AUUACCAUAGUCAUCGAGUGA [Fam2.1 aminoacylation ribozyme variant] | 43.4 | 7.53 | 3.89 | 9.11 | 7.07 | 4.32
AUUACCAUGGUCAGCGAGUGA [Fam2.1 aminoacylation ribozyme variant] | 30.7 | 6.19 | 3.19 | 6.31 | 5.49 | 3.11
AUUACCAUGGUCAUCGAGAGA [Fam2.1 aminoacylation ribozyme variant] | 0.497 | 0.937 | 0.864 | 1.38 | 0.859 | 0.797
AUUACCAUGGUCAUCGAGUAA [Fam2.1 aminoacylation ribozyme variant] | 1.09 | 1.33 | 1.42 | 1.28 | 1.7 | 1.41
AUUACCAUGGUCAUCGAGUGC [Fam2.1 aminoacylation ribozyme variant] | 0.948 | 1.47 | 1.17 | 1.35 | 1.38 | 1.12
AUUACCAUGGUCAUCGAGUGG [Fam2.1 aminoacylation ribozyme variant] | 2.67 | 3.14 | 1.63 | 2.18 | 2.45 | 1.72
